# Measured values reported in PMC5805785, “Site-specific phosphorylation of TRANSPARENT TESTA GLABRA1 mediates carbon partitioning in Arabidopsis seeds” (Nature Communications, 2018).
# Where a chain is given by its changes, count along the chain named.
# B1: TT2-His (natural protein, Arabidopsis thaliana, UniProt Q9FJA2 1-258, looked up)
# chain: MGKRATTSVRREELNRGAWTDHEDKILRDYITTHGEGKWSTLPNQAGLKRCGKSCRLRWKNYLRPGIKRGNISSDEEELIIRLHNLLGNRWSLIAGRLPGRTDNEIKNHWNSNLRKRLPKTQTKQPKRIKHSTNNENNVCVIRTKAIRCSKTLLFSDLSLQKKSSTSPLPLKEQEMDQGGSSLMGDLEFDFDRIHSEFHFPDLMDFDGLDCGNVTSLVSSNEILGELVPAQGNLDLNRPFTSCHHRGDDEDWLRDFTC
# notes: TRANSPARENT TESTA2 (TT2; MYB123), Arabidopsis thaliana; cDNA cloned into pET28a; also called MYB123; source: E. coli Rossetta (DE3), IPTG-induced, soluble fusion protein
# B2: MBP-TT2 (natural protein, Arabidopsis thaliana, UniProt Q9FJA2 1-258, looked up)
# chain: B1 chain
# notes: TRANSPARENT TESTA2 (TT2; MYB123), Arabidopsis thaliana; cDNA cloned into pMAL-c2x; also called MYB123; source: E. coli Rossetta (DE3), recombinant protein produced as for the pull-down assay
# Legend:
# [1] = biological target: T1, MBP-TT2 (Arabidopsis thaliana) (UniProt Q9FJA2); test: EMSA; conditions: LightShift Chemiluminescent EMSA kit (Pierce); buffer, salt, pH and temperature not stated
# T1 sequence: B1 chain
# [2] = biological target: T2, MBP-TT2;MBP-TTG1 (Arabidopsis thaliana;Arabidopsis thaliana) (UniProt Q9FJA2+Q9XGN1); test: EMSA; conditions: LightShift Chemiluminescent EMSA kit (Pierce); buffer, salt, pH and temperature not stated
# T2 sequence 1: B1 chain
# T2 sequence 2: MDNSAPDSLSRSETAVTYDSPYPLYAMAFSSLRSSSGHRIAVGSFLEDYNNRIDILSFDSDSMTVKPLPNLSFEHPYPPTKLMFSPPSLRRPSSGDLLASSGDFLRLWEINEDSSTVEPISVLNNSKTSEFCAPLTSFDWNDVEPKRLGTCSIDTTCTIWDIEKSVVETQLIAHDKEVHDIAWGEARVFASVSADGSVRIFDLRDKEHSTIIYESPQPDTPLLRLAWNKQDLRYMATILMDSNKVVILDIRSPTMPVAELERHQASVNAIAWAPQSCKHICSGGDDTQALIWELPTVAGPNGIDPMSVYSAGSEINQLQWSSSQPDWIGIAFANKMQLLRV
# [3] = biological target: T1, MBP-TT2 (Arabidopsis thaliana); test: competition; conditions: LightShift Chemiluminescent EMSA kit (Pierce); buffer, salt, pH and temperature not stated
# MBP-TTG1^S215A = biological target: T3, MBP-TTG1^S215A (Arabidopsis thaliana, UniProt Q9XGN1 1-341, S215A); test: pull-down; MBP, MBP-TTG1, MBP-TTG1^S215E and MBP-TTG1^S215A on amylose beads as baits; TT2-His as prey, detected with anti-His; conditions: both partners purified
# T3 construct: TRANSPARENT TESTA GLABRA1 (TTG1), Arabidopsis thaliana; mutated cDNA cloned into pMAL-c2x; source: E. coli Rossetta (DE3), soluble fusion protein immobilized on amylose beads
# T3 sequence (looked up): T2 sequence 2 with S215A
# [4] = biological target: T4, MBP-TTG1 (TRANSPARENT TESTA GLABRA1) (Arabidopsis thaliana, UniProt Q9XGN1 1-341); test: as above; conditions: both partners purified
# T4 construct: TRANSPARENT TESTA GLABRA1 (TTG1), Arabidopsis thaliana, WD40 repeat protein; cDNA cloned into pMAL-c2x; also called recombinant MBP-TTG1; source: E. coli Rossetta (DE3), IPTG-induced, soluble fusion protein on amylose resin (methods); called 'in vitro-translated' in the results for the GST pull-down
# T4 sequence (looked up): T2 sequence 2
# [5] = biological target: T4, MBP-TTG1 (TRANSPARENT TESTA GLABRA1); test: native gel or EMSA; EMSA supershift: recombinant MBP-TT2 and MBP-TTG1 incubated together with the biotinylated native GL2 probe (AC-rich motif); conditions: both partners purified
molecule,measurement,setting,value
ATAATATATAAGGAAGAAGGAGTGCGAGGAGAAGAGGGAAGAGATCATAATTAAGCAAAGAAGCTAGCTAGGGACAGGATTTGTATGTCAATGGCCGTCGACATGTCTTCCAAACAACCCACCAAAGACTTTTTCTCCTCTCCAGCCCTCTCTCTATCTCTCGTATACTACTCTCTCTTTTCTACATACATGTACTTGCTAGCTCTCACATAAACATATATT (double strand) [GL2 native probe],binding,[1],binds
same,binding,[2],binds
ATAATATATAAGGAAGAAGGAGTGCGAGGAGAAGAGGGAAGAGATCATAATTAAGCAAAGAAGCTAGCTAGGGACAGGATTTGTATGTCAATGGCCGTCGACATGTCTTCCAAACAACCCACCAAAGACTTTTTCTCCTCTCCAGCCCTCTCTCTATCTCTCGTATACTACTCTCTCTTTTCTACATACATGTACTTGCTAGCTCTCACATAAACATATATT (double strand) [GL2 native competitor],binding,[3],binds
ATAATATATAAGGAAGAAGGAGTGCGAGGAGAAGAGGGAAGAGATCATAATTAAGCAAAGAAGCTAGCTAGGGACAGGATTTGTATGTCAATGGCCGTCGACATGTCTTCAAAAAAAAAAAAAAAAGACTTTTTCTCCTCTCCAGCCCTCTCTCTATCTCTCGTATACTACTCTCTCTTTTCTACATACATGTACTTGCTAGCTCTCACATAAACATATATT (double strand) [GL2 mutated probe],binding,[1],no binding
B1,binding result,MBP-TTG1^S215A,binds
same,binding result,[4],binds
B2,binding result,[5],binds
